Laboratory results reported in publication PMC12612594, “Nuclear Magnetic Resonance‐based fragment screen of the E3 ligase Fem‐1 homolog B” (Protein Science : A Publication of the Protein Society, 2025).
Where “and” joins values, the source holds several entries; their conditions need not be identical. Equal entries are not always repeated.

B1: FEM1B WT: substrate binding domain of FEM1B (residues 1–356), wild type (protein, UniProt Q9UK73 1-356, looked up, fragment)
chain: MEGLAGYVYKAASEGKVLTLAALLLNRSESDIRYLLGYVSQQGGQRSTPLIIAARNGHAKVVRLLLEHYRVQTQQTGTVRFDGYVIDGATALWCAAGAGHFEVVKLLVSHGANVNHTTVTNSTPLRAACFDGRLDIVKYLVENNANISIANKYDNTCLMIAAYKGHTDVVRYLLEQRADPNAKAHCGATALHFAAEAGHIDIVKELIKWRAAIVVNGHGMTPLKVAAESCKADVVELLLSHADCDRRSRIEALELLGASFANDRENYDIIKTYHYLYLAMLERFQDGDNILEKEVLPPIHAYGNRTECRNPQELESIRQDRDALHMEGLIVRERILGADNIDVSHPIIYRGAVYAD
modifications: substrate binding domain
B2: FEM1B‐7: FEM1B construct, mutations L4E, L18E, L25S, L281E, R321D (protein, UniProt Q9UK73 1-627, looked up, variant L4E L18E L25S L281E R321D)
Protein fem-1 homolog B: MEGEAGYVYKAASEGKVETLAALLSNRSESDIRYLLGYVSQQGGQRSTPLIIAARNGHAKVVRLLLEHYRVQTQQTGTVRFDGYVIDGATALWCAAGAGHFEVVKLLVSHGANVNHTTVTNSTPLRAACFDGRLDIVKYLVENNANISIANKYDNTCLMIAAYKGHTDVVRYLLEQRADPNAKAHCGATALHFAAEAGHIDIVKELIKWRAAIVVNGHGMTPLKVAAESCKADVVELLLSHADCDRRSRIEALELLGASFANDRENYDIIKTYHYLYLAMEERFQDGDNILEKEVLPPIHAYGNRTECRNPQELESIRQDDDALHMEGLIVRERILGADNIDVSHPIIYRGAVYADNMEFEQCIKLWLHALHLRQKGNRNTHKDLLRFAQVFSQMIHLNETVKAPDIECVLRCSVLEIEQSMNRVKNISDADVHNAMDNYECNLYTFLYLVCISTKTQCSEEDQCKINKQIYNLIHLDPRTREGFTLLHLAVNSNTPVDDFHTNDVCSFPNALVTKLLLDCGAEVNAVDNEGNSALHIIVQYNRPISDFLTLHSIIISLVEAGAHTDMTNKQNKTPLDKSTTGVSEILLKTQMKMSLKCLAARAVRANDINYQDQIPRTLEEFVGFH
B3: FEM1B‐4: FEM1B construct, mutations L4E, L18E, L281E, R321D (protein, UniProt Q9UK73 1-627, looked up, variant L4E L18E L281E R321D)
Protein fem-1 homolog B: MEGEAGYVYKAASEGKVETLAALLLNRSESDIRYLLGYVSQQGGQRSTPLIIAARNGHAKVVRLLLEHYRVQTQQTGTVRFDGYVIDGATALWCAAGAGHFEVVKLLVSHGANVNHTTVTNSTPLRAACFDGRLDIVKYLVENNANISIANKYDNTCLMIAAYKGHTDVVRYLLEQRADPNAKAHCGATALHFAAEAGHIDIVKELIKWRAAIVVNGHGMTPLKVAAESCKADVVELLLSHADCDRRSRIEALELLGASFANDRENYDIIKTYHYLYLAMEERFQDGDNILEKEVLPPIHAYGNRTECRNPQELESIRQDDDALHMEGLIVRERILGADNIDVSHPIIYRGAVYADNMEFEQCIKLWLHALHLRQKGNRNTHKDLLRFAQVFSQMIHLNETVKAPDIECVLRCSVLEIEQSMNRVKNISDADVHNAMDNYECNLYTFLYLVCISTKTQCSEEDQCKINKQIYNLIHLDPRTREGFTLLHLAVNSNTPVDDFHTNDVCSFPNALVTKLLLDCGAEVNAVDNEGNSALHIIVQYNRPISDFLTLHSIIISLVEAGAHTDMTNKQNKTPLDKSTTGVSEILLKTQMKMSLKCLAARAVRANDINYQDQIPRTLEEFVGFH
B4: FEM1B‐6: FEM1B construct, mutations Y84A, I270N, L281E, R321D (protein, UniProt Q9UK73 1-627, looked up, variant Y84A I270N L281E R321D)
Protein fem-1 homolog B: MEGLAGYVYKAASEGKVLTLAALLLNRSESDIRYLLGYVSQQGGQRSTPLIIAARNGHAKVVRLLLEHYRVQTQQTGTVRFDGAVIDGATALWCAAGAGHFEVVKLLVSHGANVNHTTVTNSTPLRAACFDGRLDIVKYLVENNANISIANKYDNTCLMIAAYKGHTDVVRYLLEQRADPNAKAHCGATALHFAAEAGHIDIVKELIKWRAAIVVNGHGMTPLKVAAESCKADVVELLLSHADCDRRSRIEALELLGASFANDRENYDINKTYHYLYLAMEERFQDGDNILEKEVLPPIHAYGNRTECRNPQELESIRQDDDALHMEGLIVRERILGADNIDVSHPIIYRGAVYADNMEFEQCIKLWLHALHLRQKGNRNTHKDLLRFAQVFSQMIHLNETVKAPDIECVLRCSVLEIEQSMNRVKNISDADVHNAMDNYECNLYTFLYLVCISTKTQCSEEDQCKINKQIYNLIHLDPRTREGFTLLHLAVNSNTPVDDFHTNDVCSFPNALVTKLLLDCGAEVNAVDNEGNSALHIIVQYNRPISDFLTLHSIIISLVEAGAHTDMTNKQNKTPLDKSTTGVSEILLKTQMKMSLKCLAARAVRANDINYQDQIPRTLEEFVGFH
B5: FEM1B‐8: FEM1B construct, mutations L4E, A21E, L25S, I270N, L281E (protein, UniProt Q9UK73 1-627, looked up, variant L4E A21E L25S I270N L281E)
Protein fem-1 homolog B: MEGEAGYVYKAASEGKVLTLEALLSNRSESDIRYLLGYVSQQGGQRSTPLIIAARNGHAKVVRLLLEHYRVQTQQTGTVRFDGYVIDGATALWCAAGAGHFEVVKLLVSHGANVNHTTVTNSTPLRAACFDGRLDIVKYLVENNANISIANKYDNTCLMIAAYKGHTDVVRYLLEQRADPNAKAHCGATALHFAAEAGHIDIVKELIKWRAAIVVNGHGMTPLKVAAESCKADVVELLLSHADCDRRSRIEALELLGASFANDRENYDINKTYHYLYLAMEERFQDGDNILEKEVLPPIHAYGNRTECRNPQELESIRQDRDALHMEGLIVRERILGADNIDVSHPIIYRGAVYADNMEFEQCIKLWLHALHLRQKGNRNTHKDLLRFAQVFSQMIHLNETVKAPDIECVLRCSVLEIEQSMNRVKNISDADVHNAMDNYECNLYTFLYLVCISTKTQCSEEDQCKINKQIYNLIHLDPRTREGFTLLHLAVNSNTPVDDFHTNDVCSFPNALVTKLLLDCGAEVNAVDNEGNSALHIIVQYNRPISDFLTLHSIIISLVEAGAHTDMTNKQNKTPLDKSTTGVSEILLKTQMKMSLKCLAARAVRANDINYQDQIPRTLEEFVGFH
B6: FEM1B‐10: FEM1B construct, mutations L4E, L18E, L24S, I270N, L281E (protein, UniProt Q9UK73 1-627, looked up, variant L4E L18E L24S I270N L281E)
Protein fem-1 homolog B: MEGEAGYVYKAASEGKVETLAALSLNRSESDIRYLLGYVSQQGGQRSTPLIIAARNGHAKVVRLLLEHYRVQTQQTGTVRFDGYVIDGATALWCAAGAGHFEVVKLLVSHGANVNHTTVTNSTPLRAACFDGRLDIVKYLVENNANISIANKYDNTCLMIAAYKGHTDVVRYLLEQRADPNAKAHCGATALHFAAEAGHIDIVKELIKWRAAIVVNGHGMTPLKVAAESCKADVVELLLSHADCDRRSRIEALELLGASFANDRENYDINKTYHYLYLAMEERFQDGDNILEKEVLPPIHAYGNRTECRNPQELESIRQDRDALHMEGLIVRERILGADNIDVSHPIIYRGAVYADNMEFEQCIKLWLHALHLRQKGNRNTHKDLLRFAQVFSQMIHLNETVKAPDIECVLRCSVLEIEQSMNRVKNISDADVHNAMDNYECNLYTFLYLVCISTKTQCSEEDQCKINKQIYNLIHLDPRTREGFTLLHLAVNSNTPVDDFHTNDVCSFPNALVTKLLLDCGAEVNAVDNEGNSALHIIVQYNRPISDFLTLHSIIISLVEAGAHTDMTNKQNKTPLDKSTTGVSEILLKTQMKMSLKCLAARAVRANDINYQDQIPRTLEEFVGFH
B7: FEM1B‐3: FEM1B construct, mutations L4E, L18E, L281E (protein, UniProt Q9UK73 1-627, looked up, variant L4E L18E L281E)
Protein fem-1 homolog B: MEGEAGYVYKAASEGKVETLAALLLNRSESDIRYLLGYVSQQGGQRSTPLIIAARNGHAKVVRLLLEHYRVQTQQTGTVRFDGYVIDGATALWCAAGAGHFEVVKLLVSHGANVNHTTVTNSTPLRAACFDGRLDIVKYLVENNANISIANKYDNTCLMIAAYKGHTDVVRYLLEQRADPNAKAHCGATALHFAAEAGHIDIVKELIKWRAAIVVNGHGMTPLKVAAESCKADVVELLLSHADCDRRSRIEALELLGASFANDRENYDIIKTYHYLYLAMEERFQDGDNILEKEVLPPIHAYGNRTECRNPQELESIRQDRDALHMEGLIVRERILGADNIDVSHPIIYRGAVYADNMEFEQCIKLWLHALHLRQKGNRNTHKDLLRFAQVFSQMIHLNETVKAPDIECVLRCSVLEIEQSMNRVKNISDADVHNAMDNYECNLYTFLYLVCISTKTQCSEEDQCKINKQIYNLIHLDPRTREGFTLLHLAVNSNTPVDDFHTNDVCSFPNALVTKLLLDCGAEVNAVDNEGNSALHIIVQYNRPISDFLTLHSIIISLVEAGAHTDMTNKQNKTPLDKSTTGVSEILLKTQMKMSLKCLAARAVRANDINYQDQIPRTLEEFVGFH
B8: FEM1B‐5: FEM1B construct, mutations L4E, A21E, L18E, L25S (protein, UniProt Q9UK73 1-627, looked up, variant L4E A21E L18E L25S)
Protein fem-1 homolog B: MEGEAGYVYKAASEGKVETLEALLSNRSESDIRYLLGYVSQQGGQRSTPLIIAARNGHAKVVRLLLEHYRVQTQQTGTVRFDGYVIDGATALWCAAGAGHFEVVKLLVSHGANVNHTTVTNSTPLRAACFDGRLDIVKYLVENNANISIANKYDNTCLMIAAYKGHTDVVRYLLEQRADPNAKAHCGATALHFAAEAGHIDIVKELIKWRAAIVVNGHGMTPLKVAAESCKADVVELLLSHADCDRRSRIEALELLGASFANDRENYDIIKTYHYLYLAMLERFQDGDNILEKEVLPPIHAYGNRTECRNPQELESIRQDRDALHMEGLIVRERILGADNIDVSHPIIYRGAVYADNMEFEQCIKLWLHALHLRQKGNRNTHKDLLRFAQVFSQMIHLNETVKAPDIECVLRCSVLEIEQSMNRVKNISDADVHNAMDNYECNLYTFLYLVCISTKTQCSEEDQCKINKQIYNLIHLDPRTREGFTLLHLAVNSNTPVDDFHTNDVCSFPNALVTKLLLDCGAEVNAVDNEGNSALHIIVQYNRPISDFLTLHSIIISLVEAGAHTDMTNKQNKTPLDKSTTGVSEILLKTQMKMSLKCLAARAVRANDINYQDQIPRTLEEFVGFH
B9: FEM1B‐9: FEM1B construct, mutations L4E, A21E, L25S, L281E, R321D (protein, UniProt Q9UK73 1-627, looked up, variant L4E A21E L25S L281E R321D)
Protein fem-1 homolog B: MEGEAGYVYKAASEGKVLTLEALLSNRSESDIRYLLGYVSQQGGQRSTPLIIAARNGHAKVVRLLLEHYRVQTQQTGTVRFDGYVIDGATALWCAAGAGHFEVVKLLVSHGANVNHTTVTNSTPLRAACFDGRLDIVKYLVENNANISIANKYDNTCLMIAAYKGHTDVVRYLLEQRADPNAKAHCGATALHFAAEAGHIDIVKELIKWRAAIVVNGHGMTPLKVAAESCKADVVELLLSHADCDRRSRIEALELLGASFANDRENYDIIKTYHYLYLAMEERFQDGDNILEKEVLPPIHAYGNRTECRNPQELESIRQDDDALHMEGLIVRERILGADNIDVSHPIIYRGAVYADNMEFEQCIKLWLHALHLRQKGNRNTHKDLLRFAQVFSQMIHLNETVKAPDIECVLRCSVLEIEQSMNRVKNISDADVHNAMDNYECNLYTFLYLVCISTKTQCSEEDQCKINKQIYNLIHLDPRTREGFTLLHLAVNSNTPVDDFHTNDVCSFPNALVTKLLLDCGAEVNAVDNEGNSALHIIVQYNRPISDFLTLHSIIISLVEAGAHTDMTNKQNKTPLDKSTTGVSEILLKTQMKMSLKCLAARAVRANDINYQDQIPRTLEEFVGFH

Assay: thermal shift assay of FEM1B constructs
Format: physicochemical
Conditions: average of three replicates
Experimental: The substrate binding domain of FEM1B (residues 1–356, ~42 kDa molecular weight) was prepared for NMR‐based screening. However, this construct (FEM1B WT) was prone to aggregation and was not suitable for the NMR experiments. […] To reduce the potential for aggregation, we prepared several mutants of FEM1B constructs and evaluated their stability using a thermal shift assay (Table 1).

Q: With B1 as the molecule, how does the “Tm ± SD” value read?
A: Its value is 35.6 °C and 35.6 ± 0.5 °C.

Q: With B2 as the molecule, how does the “Tm ± SD” value read?
A: Its value is 28.7 ± 1.4 °C.

Q: Which “Tm ± SD” value does the source give for B3 here?
A: Its value is 35.0 ± 0.5 °C.

Q: With B4 as the molecule, how does the “Tm ± SD” value read?
A: Its value is 37.3 ± 0.04 °C.

Q: With B5 as the molecule, how does the “Tm ± SD” value read?
A: The value was 34.5 ± 0.2 °C.

Q: Which “Tm ± SD” value does the source give for B6 here?
A: The value was 36.3 ± 0.1 °C.

Q: With B7 as the molecule, how does the “Tm ± SD” value read?
A: The value was 35.0 ± 0.5 °C.

Q: With B8 as the molecule, how does the “Tm ± SD” value read?
A: Its value is 38.8 ± 0.3 °C.

Q: For B9, which “Tm ± SD” value is on record?
A: Its value is 28.5 ± 1.3 °C.
